Data published in publication doi:10.1101/2023.11.01.565146.

Target: Mlph-ABD labelled with ATTO 488 NHS Ester dye (mouse) (UniProt Q91V27)
Assay: MST

UniProt Q91V27, sequence (Q91V27 401-590): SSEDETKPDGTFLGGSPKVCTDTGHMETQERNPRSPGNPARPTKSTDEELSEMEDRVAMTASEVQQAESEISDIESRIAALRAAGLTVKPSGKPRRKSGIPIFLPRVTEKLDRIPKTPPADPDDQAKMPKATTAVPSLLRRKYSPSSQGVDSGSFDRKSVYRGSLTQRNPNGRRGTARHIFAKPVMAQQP

Substance: Flag-Myo5a-MTD (residues 1106-1467), bacterial-expressed (domain or fragment)
- Kd: 562 nM
